According to patent US5547843:

System: E. coli single-stranded DNA-binding protein (SSB) (Escherichia coli)
Settings: saturating ratio inferred from priming titration (mass ratio SSB:DNA about 2.5); 40 mM Tris-Cl pH 7.5, 50 mM NaCl, 10 mM MgCl2, 0 C; indirect functional …

M13 single-stranded viral DNA showed a binding (nt per SSB monomer) of 22.
